Test [1] has as its target CFP-E2TM (CFP in fusion with the transmembrane domain of HCV E2, H strain) (hepatitis C virus (H strain)). In words: FRET or BRET. In general terms: BRET reads energy transfer from a luciferase to a nearby fluorophore.
The target in test [2] is CFP-p7 (Cerulean fluorescent protein fused to the N-terminus of HCV p7) (hepatitis C virus (strain not stated)) (UniProt P27958). The test can be described thus: FRET or BRET.

As for “YFP-E1TM (YFP in fusion with the transmembrane domain of HCV E1, H strain) (domain or fragment)”, the mean lifetime of the donor protein in test [1] stood at 2.35 ns.

On to “YFP-NS2 (Venus yellow fluorescent protein fused to the N-terminus of HCV NS2) (from UniProt P27958 810-1026) (natural protein)”, for which the mean lifetime of the donor protein in test [2] stood at 2.34 ns.

The record behind these values is article PMC3037360.
